# Data published in patent publication US20100273160A1.
# T1: MIS type II receptor (MISRII) on mouse ovarian cancer cell lines MOVCAR 7 and 4306 (mouse) (UniProt Q8K592)
# T1 sequence (looked up): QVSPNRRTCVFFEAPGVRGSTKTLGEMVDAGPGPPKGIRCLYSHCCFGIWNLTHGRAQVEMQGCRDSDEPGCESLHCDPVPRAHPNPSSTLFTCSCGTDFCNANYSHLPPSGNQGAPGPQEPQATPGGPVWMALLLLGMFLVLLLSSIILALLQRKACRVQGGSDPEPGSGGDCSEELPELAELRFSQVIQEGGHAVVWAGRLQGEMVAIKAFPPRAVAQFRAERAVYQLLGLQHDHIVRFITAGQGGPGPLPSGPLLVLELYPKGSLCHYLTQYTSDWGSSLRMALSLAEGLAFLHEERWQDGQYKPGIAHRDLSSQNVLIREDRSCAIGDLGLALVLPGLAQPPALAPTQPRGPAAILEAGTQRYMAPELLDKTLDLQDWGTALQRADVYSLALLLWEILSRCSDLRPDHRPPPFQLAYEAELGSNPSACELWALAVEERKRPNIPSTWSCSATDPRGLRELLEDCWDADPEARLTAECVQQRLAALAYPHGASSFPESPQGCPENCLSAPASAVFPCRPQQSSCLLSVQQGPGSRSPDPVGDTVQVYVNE
# Target: T1, MIS type II receptor (MISRII) on mouse ovarian cancer cell lines MOVCAR 7 and 4306 (mouse)
# Assay: cell-based or functional assay
binder,measurement,value
recombinant human Mullerian Inhibiting Substance (MIS) (ligand) LRAEEPAVGTSGLIFREDLDWPPGSPQEPLCLVALGGDSNGSSSPLRVVGALSAYEQAFLGAVQRARWGPRDLATFGVCNTGDRQAALPSLRRLGAWLRDPGGQRLVVLHLEEVTWEPTPSLRFQEPPPGGAGPPELALLVLYPGPGPEVTVTRAGLPGAQSLCPSRDTRYLVLAVDRPAGAWRGSGLALTLQPRGEDSRLSTARLQALLFGDDHRCFTRMTPALLLLPRSEPAPLPAHGQLDTVPFPPPRPSAELEESPPSADPFLETLTRLVRALRVPPARASAPRLALDPDALAGFPQGLVNLSDPAALERLLDGEEPLLLLLRPTAATTGDPAPLHDPTSAPWATALARRVAAELQAAAAELRSLPGLPPATAPLLARLLALCPGGPGGLGDPLRALLLLKALQGLRVEWRGRDPRGPGRAQRSAGATAADGPCALRELSVDLRAERSVLIPETYQANNCQGVCGWPQSDRNPRYGNHVVLLLKMQARGAALARPPCCVPTAYAGKLLISLSEERISAHHVPNMVATECGCR,"MTT proliferation assay, 4306 SP cells after first sort, 10 µg/ml MIS, inhibition versus vehicle",37%
same,"MTT proliferation assay, 4306 SP cells after sort 2, MIS, inhibition",60%
same,"MTT proliferation assay, 4306 SP cells after sort 3, MIS, inhibition (not significant)",17%
same,"MTT proliferation assay, MOVCAR 7 NSP cells after first sort, 10 µg/ml MIS, inhibition versus vehicle",93%
same,"MTT proliferation assay, MOVCAR 7 SP cells after first sort, 10 µg/ml MIS, inhibition versus vehicle",86%
same,"MTT proliferation assay, MOVCAR 7 SP cells after sort 2, MIS, inhibition",93%
same,"MTT proliferation assay, MOVCAR 7 SP cells after sort 3, MIS, inhibition",94%
